Where two headings read alike, the source gives them in different places.
Experiments:
[1] = biological target: huCSF-1R-huFc chimera (soluble extracellular domain) (human) (UniProt P07333); assay: competition ELISA: inhibition of CSF-1 binding to immobilised huCSF-1R-huFc chimera
[2] = biological target: T1, full-length wildtype CSF-1R (wt CSF-1R) (human, UniProt P07333 20-972); assay: cell-based or functional assay
[3] = biological target: mutant CSF-1R L301S Y969F (human) (UniProt P07333); assay: cell-based or functional assay
[4] = biological target: CSF-1R (R&D-Systems Cat. No. 329-MR) (human) (UniProt P07333); assay: SPR cross-competition at 25 C; response of Antibody 2 on CSF-1R held by captured Antibody 1; competitor SC-02, clone 2-4A5 (Antibody 1, same antibody)
[5] = biological target: CSF-1R (R&D-Systems Cat. No. 329-MR) (human) (UniProt P07333); assay: SPR cross-competition at 25 C; response of Antibody 2 on CSF-1R held by captured Antibody 1; competitor <CSF-1R>7G5.3B6 (Antibody 1)
[6] = biological target: CSF-1R ECD (R&D-Systems 329-MR or in-house subcloned pCMV-presS-HisAvitag-hCSF-1R-ECD) (human) (UniProt P07333); assay: SPR (BIACORE A100) at 35 C; antibody captured, CSF-1R ECD in solution; Langmuir 1:1
[7] = biological target: T1, full-length wildtype CSF-1R (wt CSF-1R); assay: cell-based or functional assay; remark: listed apart in the source
[8] = biological target: T1, full-length wildtype CSF-1R (wt CSF-1R); assay: cell-based or functional assay; remark: listed apart in the source
[9] = biological target: CSF-1R ECD (R&D-Systems 329-MR or in-house subcloned pCMV-presS-HisAvitag-hCSF-1R-ECD) (human, UniProt P07333 20-517); assay: SPR (BIACORE A100) at 35 C; antibody captured by anti mouse Fc gamma, CSF-1R ECD in solution; Langmuir 1:1
Experimental: CSF-1R ECD (R&D-Systems 329-MR or in-house subcloned pCMV-presS-HisAvitag-hCSF-1R-ECD were added in various concentrations in solution. Association was measured by an CSF-1R-injection of 1.5 minutes at 35° C.; dissociation was measured by washing the chip surface with buffer for 10 minutes at 35° C. Anti CSF-IR SC-02, clone 2-4A5 (Santa Cruz Biotechnology, US; see also Sherr, C. J., et al., Cell 41 (1985) 665-676), which inhibits the ligand-receptor interaction, was used as reference control.

[10] = biological target: T2, huCSF-1R-huFc chimera (soluble extracellular domain) (human, UniProt P07333 20-517); assay: competition ELISA: inhibition of CSF-1 binding to immobilised huCSF-1R-huFc chimera
T2 construct: also called huCSF-1R ECDhuFc chimera; not shown: human Fc part
Experimental: At the beginning, plates were coated with […] goat F(ab′)₂ biotinylated anti Fcγ (Jackson ImmunoResearch., Cat. No. 109-006-170) for 1 hour (h).
Thereafter the wells were blocked with PBS supplemented with 0.2% TWEEN®-20 and 2% BSA (Roche Diagnostics GmbH, DE) for 0.5 h. 75 ng/ml of huCSF-1R-huFc chimera (soluble extracellular domain) was immobilized to plate for 1 h. Then dilutions of purified antibodies in PBS/0.05% Tween20/0.5% BSA were incubated for 1 h. After adding a mixture of 3 ng/ml CSF-1 (Biomol, DE, Cat. No. 60530), 50 ng/ml biotinylated anti CSF-1 clone BAF216 (R&D Systems, UK) and 1:5000 diluted streptavidin HRP (Roche Diagnostics GmbH, DE, Cat. No. 11089153001) for 1 h the plates were washed 6 times with PBST. Anti CSF-IR SC-02, clone 2-4A5 (Santa Cruz Biotechnology, ITS), which inhibits the ligand-receptor interaction, was used as positive control. Plates were developed with freshly prepared BM BLUE® POD substrate solution (BM BLUE®: 3,3′-5,5′-Tetramethylbenzidine, Roche Diagnostics GmbH, DE, Cat. No. 11484281001) for 30 minutes at RT. Absorbance was measured at 370 nm. […] Anti CSF-1R SC-02, clone 2-4A5 (Santa Cruz Biotechnology, US), which inhibits the ligand-receptor interaction, was used as reference control.

T1 sequence (P07333 20-972 limits assumed): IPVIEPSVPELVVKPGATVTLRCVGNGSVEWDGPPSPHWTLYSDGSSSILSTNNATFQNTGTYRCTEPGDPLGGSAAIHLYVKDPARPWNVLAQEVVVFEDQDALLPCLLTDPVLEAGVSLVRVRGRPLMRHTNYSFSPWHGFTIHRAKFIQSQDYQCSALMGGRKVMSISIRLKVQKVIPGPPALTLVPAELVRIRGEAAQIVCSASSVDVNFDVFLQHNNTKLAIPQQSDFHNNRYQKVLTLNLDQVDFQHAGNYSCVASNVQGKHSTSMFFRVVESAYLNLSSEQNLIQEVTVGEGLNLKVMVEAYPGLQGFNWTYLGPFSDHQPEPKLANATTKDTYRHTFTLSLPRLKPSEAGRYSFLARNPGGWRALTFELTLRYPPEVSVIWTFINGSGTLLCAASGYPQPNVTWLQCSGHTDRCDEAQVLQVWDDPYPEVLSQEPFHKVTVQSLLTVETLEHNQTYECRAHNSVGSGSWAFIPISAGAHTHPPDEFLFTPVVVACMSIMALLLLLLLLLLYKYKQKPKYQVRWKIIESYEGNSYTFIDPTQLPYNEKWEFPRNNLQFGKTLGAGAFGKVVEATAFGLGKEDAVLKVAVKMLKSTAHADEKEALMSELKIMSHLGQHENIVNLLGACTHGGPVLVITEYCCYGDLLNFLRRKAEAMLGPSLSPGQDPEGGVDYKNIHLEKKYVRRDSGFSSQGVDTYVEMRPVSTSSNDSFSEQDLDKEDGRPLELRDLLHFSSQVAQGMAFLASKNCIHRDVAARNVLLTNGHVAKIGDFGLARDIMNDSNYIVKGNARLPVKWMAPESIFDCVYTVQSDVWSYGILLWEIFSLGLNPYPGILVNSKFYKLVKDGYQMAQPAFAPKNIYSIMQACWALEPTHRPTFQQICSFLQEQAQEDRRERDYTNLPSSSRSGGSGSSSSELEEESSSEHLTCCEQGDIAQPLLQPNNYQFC
Chain of CSF-1R ECD (R&D-Systems 329-MR or in-house subcloned pCMV-presS-HisAvitag-hCSF-1R-ECD) (human) (P07333 20-517 limits assumed): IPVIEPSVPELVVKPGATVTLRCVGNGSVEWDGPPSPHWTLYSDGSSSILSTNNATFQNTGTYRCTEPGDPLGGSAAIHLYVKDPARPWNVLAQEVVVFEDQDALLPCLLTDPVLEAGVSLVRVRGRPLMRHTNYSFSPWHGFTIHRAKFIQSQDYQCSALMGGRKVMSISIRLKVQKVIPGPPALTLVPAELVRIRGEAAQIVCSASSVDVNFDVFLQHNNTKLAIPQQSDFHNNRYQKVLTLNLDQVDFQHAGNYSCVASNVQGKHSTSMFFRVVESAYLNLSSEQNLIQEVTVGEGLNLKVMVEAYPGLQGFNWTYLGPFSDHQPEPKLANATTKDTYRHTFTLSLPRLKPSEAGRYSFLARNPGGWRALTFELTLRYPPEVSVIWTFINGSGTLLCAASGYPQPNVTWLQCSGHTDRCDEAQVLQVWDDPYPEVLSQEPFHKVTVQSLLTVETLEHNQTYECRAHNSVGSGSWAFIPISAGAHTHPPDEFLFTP
Chain of CSF-1R ECD (R&D-Systems 329-MR or in-house subcloned pCMV-presS-HisAvitag-hCSF-1R-ECD) (P07333 20-517 limits assumed): as above
Chain of CSF-1R (R&D-Systems Cat. No. 329-MR) (human) (P07333 20-517 limits assumed): as above
Chain of mutant CSF-1R L301S Y969F (human) (P07333 20-972 L301S/Y969F limits assumed): as the sequence (P07333 20-972 limits assumed) above, with L282S, Y950F counted along it
Chain of huCSF-1R-huFc chimera (soluble extracellular domain) (human) (P07333 20-517, change not shown): as the sequence (P07333 20-517 limits assumed) above
T2 sequence (P07333 20-517, change not shown): as the sequence (P07333 20-517 limits assumed) above

| Molecule | IC50 [1] [µg/mL] | % inhibition of CSF-1 induced growth of BeWo tumor cells, 10 ug/ml antibody concentration [2] [%] | % survival of NIH3T3 cells expressing wt CSF-1R, 10 ug/ml antibody (…-GLO) [2] [%] | IC50 CSF-1R Phosphorylation [2] [µg/mL] | IC50 [nM] of inhibition of monocyte survival (…-GLO) [2] [nM] | % survival of NIH3T3 cells expressing mutant CSF-1R L301S Y969F, 10 ug/ml antibody (…-GLO) [3] [%] | percentage (%) of expected binding response [4] [%] | percentage (%) of expected binding response [5] [%] | Kd [6] [nM] | koff [6] [s⁻¹] | kon [6] [M⁻¹ s⁻¹] | t1/2 [6] [min] | IC50 [nM] of inhibition of monocyte survival (…-GLO) [7] [nM] | IC50 CSF-1R Phosphorylation [8] [µg/mL] | Kd [9] [nM] | koff [9] [s⁻¹] | kon [9] [M⁻¹ s⁻¹] | t1/2 [9] [min] | IC50 [10] [µg/mL] |
| --- | --- | --- | --- | --- | --- | --- | --- | --- | --- | --- | --- | --- | --- | --- | --- | --- | --- | --- | --- |
| Anti CSF-1R SC-02, clone 2-4A5 (Santa Cruz Biotechnology) (antibody) | 0.0309 | 40 | 62 | 0.412 | 2.4 | 66 | -2 | 36 | 2.73 | 0.00139 | 509000 | 8.31 |  |  |  |  |  |  |  |
| <CSF-1R>7G5.3B6 (antibody, V domains shown, Mouse monoclonal antibody from hybridoma DSM ACC2921 (NMRI mice), tested as purified hybridoma antibody; also called deposited antibody DSM ACC2921) VH: EIQLQQSGPELVKPGASVRVSCKPSGYSFTDYNMYWVRQSHGKSLDWIGYIDPYNGGTTYNQKFRGKATLTVDKSSSTAFMHLNSLTSEDSAVYYCARGGDEYYFDYWGQGTTLTVSS VL: DIVMSQSPSSLAVSVGEKVTMSCKSSQSLLDSRNQKNYLAWYQQKPGQSPKLLIYWASTRESGVPDRFTGSGSGTDFTLTISSVKAEDLAVYYCQQYYSYPPTFGGGTKLEIKR |  |  |  |  |  |  |  |  |  |  |  |  | 0.4 | < 0.011 | 0.61 | 0.0049 | 8e+06 | 2.37 | 0.0188 |
